Columns and labels:
Test in all cases: purified protein
Type in all cases: biochemical, Camellia sinensis
Details in all cases: 0.24 mM NADPH, citrate-phosphate buffer pH 7.2, 25°C
[1] = substrate: O=C1c2c(O)cc(O)cc2O[C@H](c2ccc(O)cc2)[C@H]1O
[2] = substrate: O=C1c2c(O)cc(O)cc2O[C@H](c2ccc(O)c(O)c2)[C@H]1O
[3] = substrate: O=C1c2c(O)cc(O)cc2O[C@H](c2cc(O)c(O)c(O)c2)[C@H]1O

B1: CsDFRa (Camellia sinensis) (protein)
chain: MKDSVASATASAPGTVCVTGAAGFIGSWLVMRLLERGYIVRATVRDPANLKKVKHLLDLPKADTNLTLWKADLNEEGSFDEAIEGCSGVFHVATPMDFESKDPENEVIKPTINGVLSIIRSCTKAKTVKRLVFTSSAGTVNVQEHQQPVFDENNWSDLDFINKKKMTGWMYFVSKTLAEKAAWEAAKENNIDFISIIPTLVVGPFIMPTFPPSLITALSPITRNEGHYSIIKQGQFVHLDDLCESHIFLYERPQAEGRYICSSHDATIHDLAKLMREKWPEYNVPTEFKGIDKDLPVVSFSSKKLIGMGFEFKYSLEDMFRGAIDTCREKGLLPHSFAENPVNGNKV
notes: full-length ORF in pET-32a, E. coli Rosetta (DE3), Ni Sepharose purified, vector tag removal not mentioned
For B1, the Km [1] was 539.8 µM, the Km [2] was 8.0 µM and the Km [3] was 43.0 µM.

B2: CsDFRa (Camellia sinensis; N141A) (protein)
chain: MKDSVASATASAPGTVCVTGAAGFIGSWLVMRLLERGYIVRATVRDPANLKKVKHLLDLPKADTNLTLWKADLNEEGSFDEAIEGCSGVFHVATPMDFESKDPENEVIKPTINGVLSIIRSCTKAKTVKRLVFTSSAGTVAVQEHQQPVFDENNWSDLDFINKKKMTGWMYFVSKTLAEKAAWEAAKENNIDFISIIPTLVVGPFIMPTFPPSLITALSPITRNEGHYSIIKQGQFVHLDDLCESHIFLYERPQAEGRYICSSHDATIHDLAKLMREKWPEYNVPTEFKGIDKDLPVVSFSSKKLIGMGFEFKYSLEDMFRGAIDTCREKGLLPHSFAENPVNGNKV
notes: as for B1
In the case of B2, the Km [1] is reported as 398.1 µM, the Km [2] is reported as 88.5 µM and the Km [3] is reported as 90.6 µM.

B3: CsDFRa (Camellia sinensis; N141D) (protein)
chain: MKDSVASATASAPGTVCVTGAAGFIGSWLVMRLLERGYIVRATVRDPANLKKVKHLLDLPKADTNLTLWKADLNEEGSFDEAIEGCSGVFHVATPMDFESKDPENEVIKPTINGVLSIIRSCTKAKTVKRLVFTSSAGTVDVQEHQQPVFDENNWSDLDFINKKKMTGWMYFVSKTLAEKAAWEAAKENNIDFISIIPTLVVGPFIMPTFPPSLITALSPITRNEGHYSIIKQGQFVHLDDLCESHIFLYERPQAEGRYICSSHDATIHDLAKLMREKWPEYNVPTEFKGIDKDLPVVSFSSKKLIGMGFEFKYSLEDMFRGAIDTCREKGLLPHSFAENPVNGNKV
notes: as for B1
Work on B3 yielded a Km [2] of 252.0 µM and a Km [3] of 37.2 µM.
